Measured values: patent publication US20170266254A1 (AILERON THERAPEUTICS, published 2017)
Substitutions are numbered along the chain they refer to. Bridges are numbered along the chain shown (N, C = ends). [ ]: non-standard residue; d: D form. S5 = C=CCCC[C@](C)(N)C(=O)O

B1: SP23 (peptide)
peptide: Ac-SAE[S5]DLA[S5]VKSSLVNESEKR-NH2
modifications: staple 4-8
SMILES: CC(=O)N[C@@H](CO)C(=O)N[C@@H](C)C(=O)N[C@@H](CCC(=O)O)C(=O)N[C@@]1(C)CCCC=CCCC[C@@](C)(C(=O)N[C@H](C(=O)N[C@@H](CCCCN)C(=O)N[C@@H](CO)C(=O)N[C@@H](CO)C(=O)N[C@@H](CC(C)C)C(=O)N[C@H](C(=O)N[C@@H](CC(N)=O)C(=O)N[C@@H](CCC(=O)O)C(=O)N[C@@H](CO)C(=O)N[C@@H](CCC(=O)O)C(=O)N[C@@H](CCCCN)C(=O)N[C@@H](CCCNC(=N)N)C(N)=O)C(C)C)C(C)C)NC(=O)[C@H](C)NC(=O)[C@H](CC(C)C)NC(=O)[C@H](CC(=O)O)NC1=O
B2: SP37 (peptide)
peptide: LGANDELISFADEGAQEEKSSNNSSAARDLADVKSSLV
modifications: not fully specified; N-terminal acetyl; C-terminal amide; $ = (S)-alpha-(2'-pentenyl)alanine at positions 11 and 15 (first crosslink) and 27 and 31 (second crosslink), each pair joined by an all-carbon crosslinker with one double bond
B3: SP25 (peptide)
peptide: Ac-LGANAELISFKDEGEQEEKSSENSSAERDLADAKSSAV-NH2
notes: Linear, not crosslinked; differs from SP14 by Ala at peptide positions 5, 33 and 37
B4: SP14 (peptide)
peptide: Ac-LGANDELISFKDEGEQEEKSSENSSAERDLADVKSSLV-NH2
notes: Linear, not crosslinked
B5: SP31 (peptide)
peptide: Ac-LGANDELISFKDEGEQEEKSSENSSAE[S5]DLA[S5]VKSSLV-NH2
modifications: staple 28-32
SMILES: CC[C@H](C)[C@H](NC(=O)[C@H](CC(C)C)NC(=O)[C@H](CCC(=O)O)NC(=O)[C@H](CC(=O)O)NC(=O)[C@H](CC(N)=O)NC(=O)[C@H](C)NC(=O)CNC(=O)[C@H](CC(C)C)NC(C)=O)C(=O)N[C@@H](CO)C(=O)N[C@@H](Cc1ccccc1)C(=O)N[C@@H](CCCCN)C(=O)N[C@@H](CC(=O)O)C(=O)N[C@@H](CCC(=O)O)C(=O)NCC(=O)N[C@@H](CCC(=O)O)C(=O)N[C@@H](CCC(N)=O)C(=O)N[C@@H](CCC(=O)O)C(=O)N[C@@H](CCC(=O)O)C(=O)N[C@@H](CCCCN)C(=O)N[C@@H](CO)C(=O)N[C@@H](CO)C(=O)N[C@@H](CCC(=O)O)C(=O)N[C@@H](CC(N)=O)C(=O)N[C@@H](CO)C(=O)N[C@@H](CO)C(=O)N[C@@H](C)C(=O)N[C@@H](CCC(=O)O)C(=O)N[C@@]1(C)CCCC=CCCC[C@@](C)(C(=O)N[C@H](C(=O)N[C@@H](CCCCN)C(=O)N[C@@H](CO)C(=O)N[C@@H](CO)C(=O)N[C@@H](CC(C)C)C(=O)N[C@H](C(N)=O)C(C)C)C(C)C)NC(=O)[C@H](C)NC(=O)[C@H](CC(C)C)NC(=O)[C@H](CC(=O)O)NC1=O
B6: SP26 (peptide)
peptide: B2 peptide with A27E
modifications: not fully specified; N-terminal acetyl; C-terminal amide; $ = (S)-alpha-(2'-pentenyl)alanine at positions 11 and 15, joined by an all-carbon crosslinker with one double bond
B7: SP30 (peptide)
peptide: Ac-LGANDELISFKDEGEQEEKSSENSSA[S5]RDL[S5]DVKSSLV-NH2
modifications: staple 27-31
SMILES: CC[C@H](C)[C@H](NC(=O)[C@H](CC(C)C)NC(=O)[C@H](CCC(=O)O)NC(=O)[C@H](CC(=O)O)NC(=O)[C@H](CC(N)=O)NC(=O)[C@H](C)NC(=O)CNC(=O)[C@H](CC(C)C)NC(C)=O)C(=O)N[C@@H](CO)C(=O)N[C@@H](Cc1ccccc1)C(=O)N[C@@H](CCCCN)C(=O)N[C@@H](CC(=O)O)C(=O)N[C@@H](CCC(=O)O)C(=O)NCC(=O)N[C@@H](CCC(=O)O)C(=O)N[C@@H](CCC(N)=O)C(=O)N[C@@H](CCC(=O)O)C(=O)N[C@@H](CCC(=O)O)C(=O)N[C@@H](CCCCN)C(=O)N[C@@H](CO)C(=O)N[C@@H](CO)C(=O)N[C@@H](CCC(=O)O)C(=O)N[C@@H](CC(N)=O)C(=O)N[C@@H](CO)C(=O)N[C@@H](CO)C(=O)N[C@@H](C)C(=O)N[C@@]1(C)CCCC=CCCC[C@@](C)(C(=O)N[C@@H](CC(=O)O)C(=O)N[C@H](C(=O)N[C@@H](CCCCN)C(=O)N[C@@H](CO)C(=O)N[C@@H](CO)C(=O)N[C@@H](CC(C)C)C(=O)N[C@H](C(N)=O)C(C)C)C(C)C)NC(=O)[C@H](CC(C)C)NC(=O)[C@H](CC(=O)O)NC(=O)[C@H](CCCNC(=N)N)NC1=O
B8: SP28 (peptide)
peptide: Ac-LGANDELISFKDEG[S5]QEE[S5]SSNNSSAERDLADVKSSLV-NH2
modifications: staple 15-19
SMILES: CC[C@H](C)[C@H](NC(=O)[C@H](CC(C)C)NC(=O)[C@H](CCC(=O)O)NC(=O)[C@H](CC(=O)O)NC(=O)[C@H](CC(N)=O)NC(=O)[C@H](C)NC(=O)CNC(=O)[C@H](CC(C)C)NC(C)=O)C(=O)N[C@@H](CO)C(=O)N[C@@H](Cc1ccccc1)C(=O)N[C@@H](CCCCN)C(=O)N[C@@H](CC(=O)O)C(=O)N[C@@H](CCC(=O)O)C(=O)NCC(=O)N[C@@]1(C)CCCC=CCCC[C@@](C)(C(=O)N[C@@H](CO)C(=O)N[C@@H](CO)C(=O)N[C@@H](CC(N)=O)C(=O)N[C@@H](CC(N)=O)C(=O)N[C@@H](CO)C(=O)N[C@@H](CO)C(=O)N[C@@H](C)C(=O)N[C@@H](CCC(=O)O)C(=O)N[C@@H](CCCNC(=N)N)C(=O)N[C@@H](CC(=O)O)C(=O)N[C@@H](CC(C)C)C(=O)N[C@@H](C)C(=O)N[C@@H](CC(=O)O)C(=O)N[C@H](C(=O)N[C@@H](CCCCN)C(=O)N[C@@H](CO)C(=O)N[C@@H](CO)C(=O)N[C@@H](CC(C)C)C(=O)N[C@H](C(N)=O)C(C)C)C(C)C)NC(=O)[C@H](CCC(=O)O)NC(=O)[C@H](CCC(=O)O)NC(=O)[C@H](CCC(N)=O)NC1=O
B9: SP27 (peptide)
peptide: Ac-LGANDELISFK[S5]EGE[S5]EEKSSNNSSAERDLADVKSSLV-NH2
modifications: staple 12-16
SMILES: CC[C@H](C)[C@H](NC(=O)[C@H](CC(C)C)NC(=O)[C@H](CCC(=O)O)NC(=O)[C@H](CC(=O)O)NC(=O)[C@H](CC(N)=O)NC(=O)[C@H](C)NC(=O)CNC(=O)[C@H](CC(C)C)NC(C)=O)C(=O)N[C@@H](CO)C(=O)N[C@@H](Cc1ccccc1)C(=O)N[C@@H](CCCCN)C(=O)N[C@@]1(C)CCCC=CCCC[C@@](C)(C(=O)N[C@@H](CCC(=O)O)C(=O)N[C@@H](CCC(=O)O)C(=O)N[C@@H](CCCCN)C(=O)N[C@@H](CO)C(=O)N[C@@H](CO)C(=O)N[C@@H](CC(N)=O)C(=O)N[C@@H](CC(N)=O)C(=O)N[C@@H](CO)C(=O)N[C@@H](CO)C(=O)N[C@@H](C)C(=O)N[C@@H](CCC(=O)O)C(=O)N[C@@H](CCCNC(=N)N)C(=O)N[C@@H](CC(=O)O)C(=O)N[C@@H](CC(C)C)C(=O)N[C@@H](C)C(=O)N[C@@H](CC(=O)O)C(=O)N[C@H](C(=O)N[C@@H](CCCCN)C(=O)N[C@@H](CO)C(=O)N[C@@H](CO)C(=O)N[C@@H](CC(C)C)C(=O)N[C@H](C(N)=O)C(C)C)C(C)C)NC(=O)[C@H](CCC(=O)O)NC(=O)CNC(=O)[C@H](CCC(=O)O)NC1=O
B10: SP29 (peptide)
peptide: Ac-LGANDELISFKDEGE[S5]EEK[S5]SNNSSAERDLADVKSSLV-NH2
modifications: staple 16-20
SMILES: CC[C@H](C)[C@H](NC(=O)[C@H](CC(C)C)NC(=O)[C@H](CCC(=O)O)NC(=O)[C@H](CC(=O)O)NC(=O)[C@H](CC(N)=O)NC(=O)[C@H](C)NC(=O)CNC(=O)[C@H](CC(C)C)NC(C)=O)C(=O)N[C@@H](CO)C(=O)N[C@@H](Cc1ccccc1)C(=O)N[C@@H](CCCCN)C(=O)N[C@@H](CC(=O)O)C(=O)N[C@@H](CCC(=O)O)C(=O)NCC(=O)N[C@@H](CCC(=O)O)C(=O)N[C@@]1(C)CCCC=CCCC[C@@](C)(C(=O)N[C@@H](CO)C(=O)N[C@@H](CC(N)=O)C(=O)N[C@@H](CC(N)=O)C(=O)N[C@@H](CO)C(=O)N[C@@H](CO)C(=O)N[C@@H](C)C(=O)N[C@@H](CCC(=O)O)C(=O)N[C@@H](CCCNC(=N)N)C(=O)N[C@@H](CC(=O)O)C(=O)N[C@@H](CC(C)C)C(=O)N[C@@H](C)C(=O)N[C@@H](CC(=O)O)C(=O)N[C@H](C(=O)N[C@@H](CCCCN)C(=O)N[C@@H](CO)C(=O)N[C@@H](CO)C(=O)N[C@@H](CC(C)C)C(=O)N[C@H](C(N)=O)C(C)C)C(C)C)NC(=O)[C@H](CCCCN)NC(=O)[C@H](CCC(=O)O)NC(=O)[C@H](CCC(=O)O)NC1=O
B11: SP24 (peptide)
peptide: Ac-LGANAELISFKDEGEQEEKSSENSSAERDLADVKSSLV-NH2
notes: Linear, not crosslinked; differs from SP14 by Asp to Ala at the fifth residue of the peptide

Molecular target: T1, C-terminally 6x Histidine-tagged Beta-Catenin (aa 134-668, 59 KD) (UniProt P35222 134-668)
T1 construct: range 134-668; Armadillo repeat region
T1 sequence: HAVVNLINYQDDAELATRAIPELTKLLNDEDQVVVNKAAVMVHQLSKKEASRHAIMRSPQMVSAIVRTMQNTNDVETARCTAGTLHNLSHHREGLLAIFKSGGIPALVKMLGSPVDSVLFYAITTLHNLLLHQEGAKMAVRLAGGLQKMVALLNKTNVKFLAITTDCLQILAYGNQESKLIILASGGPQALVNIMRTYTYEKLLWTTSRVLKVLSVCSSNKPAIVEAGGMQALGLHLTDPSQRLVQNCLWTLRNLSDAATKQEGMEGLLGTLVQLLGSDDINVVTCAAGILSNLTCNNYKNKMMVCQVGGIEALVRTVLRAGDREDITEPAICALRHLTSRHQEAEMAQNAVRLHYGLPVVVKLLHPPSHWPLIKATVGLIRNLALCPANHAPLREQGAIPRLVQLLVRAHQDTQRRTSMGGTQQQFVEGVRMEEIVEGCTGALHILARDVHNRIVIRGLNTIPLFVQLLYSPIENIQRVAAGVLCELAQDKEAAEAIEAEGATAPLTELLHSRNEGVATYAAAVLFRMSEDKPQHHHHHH
Experiment: competitive fluorescence polarization, FAM-labelled linear probe as competitor, His-tagged beta-catenin 134-668
Experimental: The following experiments are performed at room temperature unless otherwise noted. First, an assay buffer is prepared composed of 25 mM Tris-Hcl pH 7.5, 200 mM Sodium Chloride, and 5 mM CHAPS. Next, 1M DTT is added to assay buffer to a final concentration of 2 mM. […] Forty μl of this protein stock is added to all but six wells of a 96 well plate (which will serve as the free peptide and Blank). Test competitor peptides are diluted from 1 mM DMSO stocks to 2× working stocks in assay buffer. Further dilutions are made in assay buffer-DMSO as to maintain a constant DMSO concentration in all wells. The dilution is carried out such that the peptides have a working concentration range of 40 μM-0.7 μM (2×). As a benchmark, a linear, non-crosslinked peptide competitor is prepared as above but with a working concentration range of 13-0.7 μM. Fifty μl of the competitor 2× stocks are added to the 40 μl of protein solution previously transferred into the assay 96 well plate. Next, a 10× stock of the fluorescent probe is prepared. The probe is identical to the linear benchmark peptide except for the n-terminal conjugation of a FAM flourophore with Beta-Alanine spacer. A 1 mM DMSO stock of the probe is serially diluted to a final concentration of 25 nM (10×) and 10 μl of this stock is added to all wells except for those that will serve as the blank. The assay plate is stored in the dark and the reaction is allowed to run at room temperature for three hours. The reaction is then read on a Biotek Synergy 2 with the following settings: 100 ms delay, 40 measurements per well, with excitation filters of […], and emission filters of […]. Data is then analyzed in Graphpad Prism.

Binder	IC50 [nM]
B1	≥ 100000
B2	56
B3	≥ 100000
B4	95
B5	248
B6	42
B7	98
B8	158
B9	158
B10	223
B11	≥ 100000
